This note sets out measurements from US20150344570A1 (published 2015).

T1: FcγRIIa R (extracellular domain, His tag at the C terminus) (human, UniProt P12318 34-217)
T1 construct: extracellular domain; Soluble analyte in Biacore; also called FcgRIIa R type; 2aR
T1 sequence (looked up): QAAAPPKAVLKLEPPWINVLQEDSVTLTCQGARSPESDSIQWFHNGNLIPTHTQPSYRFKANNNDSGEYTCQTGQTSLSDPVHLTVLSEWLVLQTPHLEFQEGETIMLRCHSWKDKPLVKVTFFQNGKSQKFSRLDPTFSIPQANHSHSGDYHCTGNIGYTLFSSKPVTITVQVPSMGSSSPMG

B1: GpH7-B3 variant H268_18N/GpL16-k0 (antibody, human IgG1, kappa)
heavy: not shown
light: DIVMTQSPLSLPVTPGEPASISCQASESLVHSNRNTYLHWYLQKPGQSPQLLIYKVSNRFSGVPDRFSGSGSGTDFTLKISRVEAEDVGVYYCSQNTHVPPTFGQGTKVEIERTVAAPSVFIFPPSDEQLKSGTASVVCLLNNFYPREAKVQWKVDNALQSGNSQESVTEQDSKDSTYSLSSTLTLSKADYEKHKVYACEVTHQGLSSPVTKSFNRGEC
notes: homodimerized; also called Ho Ab
B2: GpH7-B3 variant K334_07I/GpL16-k0 (antibody, human IgG1, kappa)
heavy: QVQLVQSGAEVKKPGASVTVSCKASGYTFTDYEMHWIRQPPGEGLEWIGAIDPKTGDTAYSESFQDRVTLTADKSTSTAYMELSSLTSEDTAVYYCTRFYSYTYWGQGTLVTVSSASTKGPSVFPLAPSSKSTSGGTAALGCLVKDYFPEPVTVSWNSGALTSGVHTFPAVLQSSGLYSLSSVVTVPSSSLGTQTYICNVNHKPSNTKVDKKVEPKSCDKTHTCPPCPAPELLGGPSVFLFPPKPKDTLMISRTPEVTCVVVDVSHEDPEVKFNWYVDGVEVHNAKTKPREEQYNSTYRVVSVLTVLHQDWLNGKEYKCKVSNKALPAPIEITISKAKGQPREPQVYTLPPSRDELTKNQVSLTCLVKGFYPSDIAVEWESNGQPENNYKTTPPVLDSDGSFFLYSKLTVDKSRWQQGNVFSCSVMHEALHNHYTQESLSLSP
light: DIVMTQSPLSLPVTPGEPASISCQASESLVHSNRNTYLHWYLQKPGQSPQLLIYKVSNRFSGVPDRFSGSGSGTDFTLKISRVEAEDVGVYYCSQNTHVPPTFGQGTKVEIERTVAAPSVFIFPPSDEQLKSGTASVVCLLNNFYPREAKVQWKVDNALQSGNSQESVTEQDSKDSTYSLSSTLTLSKADYEKHKVYACEVTHQGLSSPVTKSFNRGEC
notes: as for B1
B3: GpH7-B3 variant I332_04F/GpL16-k0 (antibody, human IgG1, kappa)
heavy: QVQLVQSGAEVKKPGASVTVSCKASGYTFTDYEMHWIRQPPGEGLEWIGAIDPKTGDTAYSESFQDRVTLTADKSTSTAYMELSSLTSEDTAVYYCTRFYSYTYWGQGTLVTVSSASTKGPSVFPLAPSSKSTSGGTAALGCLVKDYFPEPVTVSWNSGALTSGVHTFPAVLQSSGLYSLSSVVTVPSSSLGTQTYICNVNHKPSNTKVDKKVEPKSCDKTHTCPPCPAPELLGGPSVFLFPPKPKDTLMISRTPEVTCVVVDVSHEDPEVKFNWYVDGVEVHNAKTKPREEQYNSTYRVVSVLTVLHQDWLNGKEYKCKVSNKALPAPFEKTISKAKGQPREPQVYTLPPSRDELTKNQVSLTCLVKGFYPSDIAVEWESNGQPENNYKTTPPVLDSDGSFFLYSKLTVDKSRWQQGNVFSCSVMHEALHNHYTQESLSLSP
light: DIVMTQSPLSLPVTPGEPASISCQASESLVHSNRNTYLHWYLQKPGQSPQLLIYKVSNRFSGVPDRFSGSGSGTDFTLKISRVEAEDVGVYYCSQNTHVPPTFGQGTKVEIERTVAAPSVFIFPPSDEQLKSGTASVVCLLNNFYPREAKVQWKVDNALQSGNSQESVTEQDSKDSTYSLSSTLTLSKADYEKHKVYACEVTHQGLSSPVTKSFNRGEC
notes: as for B1
B4: GpH7-B3 variant K334_03V/GpL16-k0 (antibody, human IgG1, kappa)
heavy: not shown
light: DIVMTQSPLSLPVTPGEPASISCQASESLVHSNRNTYLHWYLQKPGQSPQLLIYKVSNRFSGVPDRFSGSGSGTDFTLKISRVEAEDVGVYYCSQNTHVPPTFGQGTKVEIERTVAAPSVFIFPPSDEQLKSGTASVVCLLNNFYPREAKVQWKVDNALQSGNSQESVTEQDSKDSTYSLSSTLTLSKADYEKHKVYACEVTHQGLSSPVTKSFNRGEC
notes: as for B1
B5: GpH7-B3 variant K326_14T/GpL16-k0 (antibody, human IgG1, kappa)
heavy: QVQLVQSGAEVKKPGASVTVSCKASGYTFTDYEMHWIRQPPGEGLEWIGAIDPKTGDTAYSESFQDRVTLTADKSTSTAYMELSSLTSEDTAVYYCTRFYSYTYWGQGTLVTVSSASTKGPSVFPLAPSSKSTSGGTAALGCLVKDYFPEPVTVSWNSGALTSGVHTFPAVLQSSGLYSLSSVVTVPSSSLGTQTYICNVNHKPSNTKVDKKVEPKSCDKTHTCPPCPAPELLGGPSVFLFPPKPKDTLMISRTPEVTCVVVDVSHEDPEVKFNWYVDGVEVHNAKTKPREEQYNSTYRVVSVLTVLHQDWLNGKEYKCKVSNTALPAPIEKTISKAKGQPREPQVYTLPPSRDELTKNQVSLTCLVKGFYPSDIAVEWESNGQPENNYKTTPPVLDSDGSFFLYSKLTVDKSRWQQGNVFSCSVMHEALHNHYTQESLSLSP
light: DIVMTQSPLSLPVTPGEPASISCQASESLVHSNRNTYLHWYLQKPGQSPQLLIYKVSNRFSGVPDRFSGSGSGTDFTLKISRVEAEDVGVYYCSQNTHVPPTFGQGTKVEIERTVAAPSVFIFPPSDEQLKSGTASVVCLLNNFYPREAKVQWKVDNALQSGNSQESVTEQDSKDSTYSLSSTLTLSKADYEKHKVYACEVTHQGLSSPVTKSFNRGEC
notes: as for B1
B6: GpH7-B3 variant K334_15Y/GpL16-k0 (antibody, human IgG1, kappa)
heavy: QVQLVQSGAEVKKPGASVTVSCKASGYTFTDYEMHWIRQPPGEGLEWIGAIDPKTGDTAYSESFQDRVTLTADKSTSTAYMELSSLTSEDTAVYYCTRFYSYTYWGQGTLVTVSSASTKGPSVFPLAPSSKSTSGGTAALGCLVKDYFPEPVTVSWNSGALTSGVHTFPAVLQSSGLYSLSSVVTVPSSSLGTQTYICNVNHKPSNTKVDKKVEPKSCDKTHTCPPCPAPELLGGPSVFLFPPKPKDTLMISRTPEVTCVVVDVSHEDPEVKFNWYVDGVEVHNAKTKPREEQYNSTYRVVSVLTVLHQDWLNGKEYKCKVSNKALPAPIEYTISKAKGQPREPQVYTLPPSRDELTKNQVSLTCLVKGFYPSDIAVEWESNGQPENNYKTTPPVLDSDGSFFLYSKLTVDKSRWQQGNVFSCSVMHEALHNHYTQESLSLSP
light: DIVMTQSPLSLPVTPGEPASISCQASESLVHSNRNTYLHWYLQKPGQSPQLLIYKVSNRFSGVPDRFSGSGSGTDFTLKISRVEAEDVGVYYCSQNTHVPPTFGQGTKVEIERTVAAPSVFIFPPSDEQLKSGTASVVCLLNNFYPREAKVQWKVDNALQSGNSQESVTEQDSKDSTYSLSSTLTLSKADYEKHKVYACEVTHQGLSSPVTKSFNRGEC
notes: as for B1
B7: GpH7-B3 variant K326_09D/GpL16-k0 (antibody, human IgG1, kappa)
heavy: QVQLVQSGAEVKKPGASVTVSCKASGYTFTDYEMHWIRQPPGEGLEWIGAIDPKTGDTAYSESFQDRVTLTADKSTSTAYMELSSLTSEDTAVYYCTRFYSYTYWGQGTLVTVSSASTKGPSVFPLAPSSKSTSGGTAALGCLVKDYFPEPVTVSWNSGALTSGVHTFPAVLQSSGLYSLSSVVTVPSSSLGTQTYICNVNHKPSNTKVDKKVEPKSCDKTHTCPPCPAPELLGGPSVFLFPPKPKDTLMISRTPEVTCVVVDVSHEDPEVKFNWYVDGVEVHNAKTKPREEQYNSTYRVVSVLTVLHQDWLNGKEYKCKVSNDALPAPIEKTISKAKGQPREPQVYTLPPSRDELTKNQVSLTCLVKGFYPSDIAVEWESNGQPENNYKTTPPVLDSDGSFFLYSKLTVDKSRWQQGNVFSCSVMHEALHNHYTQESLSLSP
light: DIVMTQSPLSLPVTPGEPASISCQASESLVHSNRNTYLHWYLQKPGQSPQLLIYKVSNRFSGVPDRFSGSGSGTDFTLKISRVEAEDVGVYYCSQNTHVPPTFGQGTKVEIERTVAAPSVFIFPPSDEQLKSGTASVVCLLNNFYPREAKVQWKVDNALQSGNSQESVTEQDSKDSTYSLSSTLTLSKADYEKHKVYACEVTHQGLSSPVTKSFNRGEC
notes: as for B1
B8: GpH7-B3 variant K326_06M/GpL16-k0 (antibody, human IgG1, kappa)
heavy: not shown
light: DIVMTQSPLSLPVTPGEPASISCQASESLVHSNRNTYLHWYLQKPGQSPQLLIYKVSNRFSGVPDRFSGSGSGTDFTLKISRVEAEDVGVYYCSQNTHVPPTFGQGTKVEIERTVAAPSVFIFPPSDEQLKSGTASVVCLLNNFYPREAKVQWKVDNALQSGNSQESVTEQDSKDSTYSLSSTLTLSKADYEKHKVYACEVTHQGLSSPVTKSFNRGEC
notes: as for B1
B9: GpH7-B3 variant K326_16H/GpL16-k0 (antibody, human IgG1, kappa)
heavy: not shown
light: DIVMTQSPLSLPVTPGEPASISCQASESLVHSNRNTYLHWYLQKPGQSPQLLIYKVSNRFSGVPDRFSGSGSGTDFTLKISRVEAEDVGVYYCSQNTHVPPTFGQGTKVEIERTVAAPSVFIFPPSDEQLKSGTASVVCLLNNFYPREAKVQWKVDNALQSGNSQESVTEQDSKDSTYSLSSTLTLSKADYEKHKVYACEVTHQGLSSPVTKSFNRGEC
notes: as for B1
B10: GpH7-B3 variant K326_19Q/GpL16-k0 (antibody, human IgG1, kappa)
heavy: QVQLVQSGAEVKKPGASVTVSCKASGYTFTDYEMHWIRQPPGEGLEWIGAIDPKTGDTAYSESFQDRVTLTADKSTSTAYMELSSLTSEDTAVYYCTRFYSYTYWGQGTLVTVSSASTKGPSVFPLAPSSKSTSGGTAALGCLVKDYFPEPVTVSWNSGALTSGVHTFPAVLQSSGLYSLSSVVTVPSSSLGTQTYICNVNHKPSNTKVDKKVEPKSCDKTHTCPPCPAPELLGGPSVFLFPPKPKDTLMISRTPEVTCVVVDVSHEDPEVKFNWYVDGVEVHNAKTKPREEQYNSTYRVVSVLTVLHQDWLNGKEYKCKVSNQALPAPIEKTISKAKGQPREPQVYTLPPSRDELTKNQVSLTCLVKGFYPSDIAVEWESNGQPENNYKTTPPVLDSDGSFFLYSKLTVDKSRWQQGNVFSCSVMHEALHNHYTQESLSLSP
light: DIVMTQSPLSLPVTPGEPASISCQASESLVHSNRNTYLHWYLQKPGQSPQLLIYKVSNRFSGVPDRFSGSGSGTDFTLKISRVEAEDVGVYYCSQNTHVPPTFGQGTKVEIERTVAAPSVFIFPPSDEQLKSGTASVVCLLNNFYPREAKVQWKVDNALQSGNSQESVTEQDSKDSTYSLSSTLTLSKADYEKHKVYACEVTHQGLSSPVTKSFNRGEC
notes: as for B1
B11: GpH7-B3 variant L328_06M/GpL16-k0 (antibody, human IgG1, kappa)
heavy: not shown
light: DIVMTQSPLSLPVTPGEPASISCQASESLVHSNRNTYLHWYLQKPGQSPQLLIYKVSNRFSGVPDRFSGSGSGTDFTLKISRVEAEDVGVYYCSQNTHVPPTFGQGTKVEIERTVAAPSVFIFPPSDEQLKSGTASVVCLLNNFYPREAKVQWKVDNALQSGNSQESVTEQDSKDSTYSLSSTLTLSKADYEKHKVYACEVTHQGLSSPVTKSFNRGEC
notes: as for B1
B12: GpH7-B3 variant K326_10E/GpL16-k0 (antibody, human IgG1, kappa)
heavy: not shown
light: DIVMTQSPLSLPVTPGEPASISCQASESLVHSNRNTYLHWYLQKPGQSPQLLIYKVSNRFSGVPDRFSGSGSGTDFTLKISRVEAEDVGVYYCSQNTHVPPTFGQGTKVEIERTVAAPSVFIFPPSDEQLKSGTASVVCLLNNFYPREAKVQWKVDNALQSGNSQESVTEQDSKDSTYSLSSTLTLSKADYEKHKVYACEVTHQGLSSPVTKSFNRGEC
notes: as for B1
B13: GpH7-B3 variant I332_09D/GpL16-k0 (antibody, human IgG1, kappa)
heavy: not shown
light: DIVMTQSPLSLPVTPGEPASISCQASESLVHSNRNTYLHWYLQKPGQSPQLLIYKVSNRFSGVPDRFSGSGSGTDFTLKISRVEAEDVGVYYCSQNTHVPPTFGQGTKVEIERTVAAPSVFIFPPSDEQLKSGTASVVCLLNNFYPREAKVQWKVDNALQSGNSQESVTEQDSKDSTYSLSSTLTLSKADYEKHKVYACEVTHQGLSSPVTKSFNRGEC
notes: as for B1
B14: GpH7-B3 variant L328_04F/GpL16-k0 (antibody, human IgG1, kappa)
heavy: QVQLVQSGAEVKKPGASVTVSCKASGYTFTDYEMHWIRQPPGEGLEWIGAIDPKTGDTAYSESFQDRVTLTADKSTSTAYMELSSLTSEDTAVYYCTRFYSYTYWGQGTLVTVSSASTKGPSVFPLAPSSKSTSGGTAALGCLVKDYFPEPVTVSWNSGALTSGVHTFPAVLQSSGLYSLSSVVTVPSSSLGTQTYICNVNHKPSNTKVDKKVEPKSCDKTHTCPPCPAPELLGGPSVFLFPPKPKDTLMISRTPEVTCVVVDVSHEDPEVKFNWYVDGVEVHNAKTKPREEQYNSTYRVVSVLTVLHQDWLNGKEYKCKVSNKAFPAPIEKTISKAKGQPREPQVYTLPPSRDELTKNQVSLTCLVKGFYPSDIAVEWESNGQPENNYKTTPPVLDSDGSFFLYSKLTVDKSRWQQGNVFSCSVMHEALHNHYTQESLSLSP
light: DIVMTQSPLSLPVTPGEPASISCQASESLVHSNRNTYLHWYLQKPGQSPQLLIYKVSNRFSGVPDRFSGSGSGTDFTLKISRVEAEDVGVYYCSQNTHVPPTFGQGTKVEIERTVAAPSVFIFPPSDEQLKSGTASVVCLLNNFYPREAKVQWKVDNALQSGNSQESVTEQDSKDSTYSLSSTLTLSKADYEKHKVYACEVTHQGLSSPVTKSFNRGEC
notes: as for B1
B15: GpH7-B3 variant K334_14T/GpL16-k0 (antibody, human IgG1, kappa)
heavy: not shown
light: DIVMTQSPLSLPVTPGEPASISCQASESLVHSNRNTYLHWYLQKPGQSPQLLIYKVSNRFSGVPDRFSGSGSGTDFTLKISRVEAEDVGVYYCSQNTHVPPTFGQGTKVEIERTVAAPSVFIFPPSDEQLKSGTASVVCLLNNFYPREAKVQWKVDNALQSGNSQESVTEQDSKDSTYSLSSTLTLSKADYEKHKVYACEVTHQGLSSPVTKSFNRGEC
notes: as for B1
B16: GpH7-B3 variant K334_18N/GpL16-k0 (antibody, human IgG1, kappa)
heavy: not shown
light: DIVMTQSPLSLPVTPGEPASISCQASESLVHSNRNTYLHWYLQKPGQSPQLLIYKVSNRFSGVPDRFSGSGSGTDFTLKISRVEAEDVGVYYCSQNTHVPPTFGQGTKVEIERTVAAPSVFIFPPSDEQLKSGTASVVCLLNNFYPREAKVQWKVDNALQSGNSQESVTEQDSKDSTYSLSSTLTLSKADYEKHKVYACEVTHQGLSSPVTKSFNRGEC
notes: as for B1
B17: GpH7-B3 variant I332_15Y/GpL16-k0 (antibody, human IgG1, kappa)
heavy: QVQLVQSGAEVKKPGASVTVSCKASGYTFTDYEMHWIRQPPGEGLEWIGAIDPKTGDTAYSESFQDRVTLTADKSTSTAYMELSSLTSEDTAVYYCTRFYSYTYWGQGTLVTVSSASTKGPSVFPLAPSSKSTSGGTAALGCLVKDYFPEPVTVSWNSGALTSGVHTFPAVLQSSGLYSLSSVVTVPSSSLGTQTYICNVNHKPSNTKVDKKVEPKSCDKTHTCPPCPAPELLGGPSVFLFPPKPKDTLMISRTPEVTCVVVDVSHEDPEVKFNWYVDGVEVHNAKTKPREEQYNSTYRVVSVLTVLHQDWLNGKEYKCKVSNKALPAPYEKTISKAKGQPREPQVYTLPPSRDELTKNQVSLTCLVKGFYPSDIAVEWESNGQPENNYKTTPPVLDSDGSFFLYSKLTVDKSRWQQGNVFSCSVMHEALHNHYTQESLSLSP
light: DIVMTQSPLSLPVTPGEPASISCQASESLVHSNRNTYLHWYLQKPGQSPQLLIYKVSNRFSGVPDRFSGSGSGTDFTLKISRVEAEDVGVYYCSQNTHVPPTFGQGTKVEIERTVAAPSVFIFPPSDEQLKSGTASVVCLLNNFYPREAKVQWKVDNALQSGNSQESVTEQDSKDSTYSLSSTLTLSKADYEKHKVYACEVTHQGLSSPVTKSFNRGEC
notes: as for B1
B18: GpH7-B3 variant K334_16H/GpL16-k0 (antibody, human IgG1, kappa)
heavy: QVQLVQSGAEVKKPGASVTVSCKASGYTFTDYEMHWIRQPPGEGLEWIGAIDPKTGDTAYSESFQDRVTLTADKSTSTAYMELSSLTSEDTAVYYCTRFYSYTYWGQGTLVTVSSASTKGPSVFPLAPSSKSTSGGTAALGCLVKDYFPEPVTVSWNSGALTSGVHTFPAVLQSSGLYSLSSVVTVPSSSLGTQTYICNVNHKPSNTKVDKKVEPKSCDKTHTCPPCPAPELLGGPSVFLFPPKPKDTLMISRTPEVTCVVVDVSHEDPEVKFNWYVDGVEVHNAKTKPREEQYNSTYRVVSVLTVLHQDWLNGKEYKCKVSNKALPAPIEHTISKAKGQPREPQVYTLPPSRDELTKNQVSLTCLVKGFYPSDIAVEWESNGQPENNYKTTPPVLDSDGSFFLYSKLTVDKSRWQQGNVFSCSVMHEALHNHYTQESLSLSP
light: DIVMTQSPLSLPVTPGEPASISCQASESLVHSNRNTYLHWYLQKPGQSPQLLIYKVSNRFSGVPDRFSGSGSGTDFTLKISRVEAEDVGVYYCSQNTHVPPTFGQGTKVEIERTVAAPSVFIFPPSDEQLKSGTASVVCLLNNFYPREAKVQWKVDNALQSGNSQESVTEQDSKDSTYSLSSTLTLSKADYEKHKVYACEVTHQGLSSPVTKSFNRGEC
notes: as for B1
B19: GpH7-B3 variant I332_10E/GpL16-k0 (antibody, human IgG1, kappa)
heavy: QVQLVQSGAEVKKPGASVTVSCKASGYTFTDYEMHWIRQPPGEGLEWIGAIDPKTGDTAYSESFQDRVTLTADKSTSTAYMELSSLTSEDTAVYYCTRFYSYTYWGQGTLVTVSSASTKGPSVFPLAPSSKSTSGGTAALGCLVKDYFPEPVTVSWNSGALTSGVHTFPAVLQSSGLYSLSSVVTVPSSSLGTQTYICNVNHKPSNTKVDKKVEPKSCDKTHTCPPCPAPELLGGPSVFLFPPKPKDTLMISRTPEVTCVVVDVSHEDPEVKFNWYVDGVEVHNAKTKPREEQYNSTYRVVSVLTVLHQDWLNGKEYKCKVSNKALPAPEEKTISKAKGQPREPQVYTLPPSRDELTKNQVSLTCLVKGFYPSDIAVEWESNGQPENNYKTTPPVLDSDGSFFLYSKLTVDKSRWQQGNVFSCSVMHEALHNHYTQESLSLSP
light: DIVMTQSPLSLPVTPGEPASISCQASESLVHSNRNTYLHWYLQKPGQSPQLLIYKVSNRFSGVPDRFSGSGSGTDFTLKISRVEAEDVGVYYCSQNTHVPPTFGQGTKVEIERTVAAPSVFIFPPSDEQLKSGTASVVCLLNNFYPREAKVQWKVDNALQSGNSQESVTEQDSKDSTYSLSSTLTLSKADYEKHKVYACEVTHQGLSSPVTKSFNRGEC
notes: as for B1
B20: GpH7-B3 variant L328_03V/GpL16-k0 (antibody, human IgG1, kappa)
heavy: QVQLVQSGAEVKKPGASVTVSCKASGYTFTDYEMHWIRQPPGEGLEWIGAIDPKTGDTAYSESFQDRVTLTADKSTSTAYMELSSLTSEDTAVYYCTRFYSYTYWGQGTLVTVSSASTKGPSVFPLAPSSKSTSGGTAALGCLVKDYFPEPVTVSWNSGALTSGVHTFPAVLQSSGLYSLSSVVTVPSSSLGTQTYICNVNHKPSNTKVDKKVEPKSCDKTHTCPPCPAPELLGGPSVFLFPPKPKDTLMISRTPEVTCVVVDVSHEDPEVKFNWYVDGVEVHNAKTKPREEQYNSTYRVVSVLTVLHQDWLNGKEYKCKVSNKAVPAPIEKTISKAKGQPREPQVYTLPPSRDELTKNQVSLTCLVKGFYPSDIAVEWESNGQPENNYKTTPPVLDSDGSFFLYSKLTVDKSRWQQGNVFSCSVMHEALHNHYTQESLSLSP
light: DIVMTQSPLSLPVTPGEPASISCQASESLVHSNRNTYLHWYLQKPGQSPQLLIYKVSNRFSGVPDRFSGSGSGTDFTLKISRVEAEDVGVYYCSQNTHVPPTFGQGTKVEIERTVAAPSVFIFPPSDEQLKSGTASVVCLLNNFYPREAKVQWKVDNALQSGNSQESVTEQDSKDSTYSLSSTLTLSKADYEKHKVYACEVTHQGLSSPVTKSFNRGEC
notes: as for B1

The target in the assay is T1, FcγRIIa R (extracellular domain, His …). As to the kind of experiment: SPR (Biacore), relative binding, control GpH7-B3/GpL16-k0 = 100. The protocol: Analysis of interaction between objective antibody and the FcγR was carried out using Biacore T100 (GE Healthcare). HBS-EP+ (GE Healthcare) was used as the running buffer, and the measurement temperature was set to 25° C. Chips produced by immobilizing the antigen peptide by the amine coupling method to a Series S Sencor Chip CM5 (GE Healthcare), or alternatively, chips produced by allowing preliminarily biotinylated antigen peptides to interact with and immobilize onto a Series S Sensor Chip SA (certified) (GE Healthcare) were used. Antibodies of interest were captured onto an antigen peptide-immobilized chip, and allowed to interact to each FcγR diluted with running buffer. To regenerate and repeatedly use the chip, the antibodies captured on the chip were washed off by reacting 10 mM glycine-HCl, pH 1.5.
Background: SPR reads the build-up and loss of mass on a sensor chip optically.
As for B1, the Ho/Con_2aR was 134 % of control.

Regarding B2, the Ho/Con_2aR was 121 % of control. As for B3, the Ho/Con_2aR was 109 % of control. With B4, the Ho/Con_2aR was 123 % of control.

Take B5: the Ho/Con_2aR is 141 % of control.

On to B6, for which the Ho/Con_2aR is 112 % of control.

Consider B7, for which the Ho/Con_2aR was 158 % of control.

In the case of B8, the Ho/Con_2aR is 143 % of control. The same measure for B9: 123 % of control; for B10: 137 % of control. The same measure for B11: 124 % of control; for B12: 156 % of control; for B13: 127 % of control. The same measure for B14: 145 % of control; for B15: 117 % of control; for B16: 113 % of control. With B17, the Ho/Con_2aR is 111 % of control.

As for B18, the Ho/Con_2aR was 111 % of control. The same measure for B19: 123 % of control; for B20: 116 % of control.
